In patent US20210206856A1 (PANDION OPERATIONS, published 2021):

B1: MAdCAM Antibody Table 1 Clone 12 (scFv)
scFv: QVQLVQSGAEVKKPGASVKVSCKASGYTFTGYYMHWVRQAPGQGLEWMGWIGPNSGDTNYAQKFQGRVTMTRDTSTSTVYMELSSLRSEDTAVYYCARDLDHNWYFDLWGRGTLVTVSSGGGGSGGGGSGGGGSGGGGSDIVMTQSPLSLPVTPGEPASISCRSSQSLLHSNGYNYLDWYLQKPGQSPQLLIYSSSNRAPGVPDRFSGSGSGTDFTLKISRVEAEDVGVYYCMQALHIPLTFGGGTKVEIK
B2: MAdCAM Antibody Table 1 Clone 13 (scFv)
scFv: EVQLLESGGGLVQPGGSLRLSCAASGFTFDDYAMHWVRQAPGKGLEWVSYIDASGTTIYYADSVKGRFTISRDNSKNTLYLQMNSLRAEDTAVYYCAKDQAAAGYWYFDLWGRGTLVTVSSGGGGSGGGGSGGGGSGGGGSDIQMTQSPSSLSASVGDRVTITCQASQDISNYLNWYQQKPGKAPKLLIYKASTLESGVPSRFSGSGSGTDFTLTISSLQPEDFATYYCQQSYSTPITFGQGTRLEIK
B3: MAdCAM Antibody Table 1 Clone 14 (scFv)
scFv: QVQLVQSGAEVKKPGSSVKVSCKASGYTFTDYHIHWVRQAPGQGLEWMGGIVPRSGSTTYAQKFQGRVTITADESTSTAYMELSSLRSEDTAVYYCAKDESSGWYYFDYWGQGTLVTVSSGGGGSGGGGSGGGGSGGGGSDIVMTQSPLSLPVTPGEPASISCRSSQSLLHSNGYNYLDWYLQKPGQSPQLLIYSAYNRASGVPDRFSGSGSGTDFTLKISRVEAEDVGVYYCMQALQTPLTFGQGTKVEIK
B4: MAdCAM Antibody Table 1 Clone 15 (scFv)
scFv: QVQLVQSGAEVKKPGSSVKVSCKASGYTFTNYYMHWVRQAPGQGLEWMGGIIPIVDRVKYAQKFQGRVTITADESTSTAYMELSSLRSEDTAVYYCAKGRYTVNYYYGMDVWGQGTTVTVSSGGGGSGGGGSGGGGSGGGGSDIQMTQSPSSLSASVGDRVTITCQANQDISNYLNWYQQKPGKAPKLLIYRASKLEAGVPSRFSGSGSGTDFTLTISSLQPEDFATYYCQQSSEIPYSFGQGTKLEIK
B5: MAdCAM Antibody Table 1 Clone 16 (scFv)
scFv: EVQLLESGGGLVQPGGSLRLSCAASGFTFEDYAMHWVRQAPGKGLEWVSYLNSDGGSTSYADSVKGRFTISRDNSKNTLYLQMNSLRAEDTAVYYCAKDYCTNGVCAFDYWGQGTLVTVSSGGGGSGGGGSGGGGSGGGGSDIQMTQSPSSLSASVGDRVTITCRASQSISTYLNWYQQKPGKAPKLLIYDASNLETGVPSRFSGSGSGTDFTLTISSLQPEDFATYYCQQSYTIPITFGQGTRLEIK
B6: MAdCAM Antibody Table 1 Clone 17 (scFv)
scFv: EVQLLESGGGLVQPGGSLRLSCAASGFTFSDSAMHWVRQAPGKGLEWVSAISGSGSTIYYADSVKGRFTISRDNSKNTLYLQMNSLRAEDTAVYYCVSDIAVAGHWYFDLWGRGTLVTVSSGGGGSGGGGSGGGGSGGGGSDIQMTQSPSSLSASVGDRVTITCRASQSISTFLNWYQQKPGKAPKLLIYAASRLEGGVPSRFSGSGSGTDFTLTISSLQPEDFATYYCQQANSFPLTFGPGTKVDIK
B7: MAdCAM Antibody Table 1 Clone 21 (scFv)
scFv: EVQLLESGGGLVQPGGSLRLSCAASGFTFSNAWMSWVRQAPGKGLEWVSTIVGNGGATYYADSVKGRFTISRDNSKNTLYLQMNSLRAEDTAVYYCARDNPLRWQGMDVWGQGTLVTVSSGGGGSGGGGSGGGGSGGGGSDIQMTQSPSSLSASVGDRVTITCRASQDISNYLNWYQQKPGKAPKLLIYAASSLQSGVPSRFSGSGSGTDFTLTISSLQPEDFATYYCQQSYSIPPTFGPGTKVDIK

What follows are binders tested against T1, human MAdCAM expressed on cells (human, UniProt Q13477 19-382) (assay: cell binding).
T1 construct: whole, on cells; also called MADCAM1
T1 sequence (looked up): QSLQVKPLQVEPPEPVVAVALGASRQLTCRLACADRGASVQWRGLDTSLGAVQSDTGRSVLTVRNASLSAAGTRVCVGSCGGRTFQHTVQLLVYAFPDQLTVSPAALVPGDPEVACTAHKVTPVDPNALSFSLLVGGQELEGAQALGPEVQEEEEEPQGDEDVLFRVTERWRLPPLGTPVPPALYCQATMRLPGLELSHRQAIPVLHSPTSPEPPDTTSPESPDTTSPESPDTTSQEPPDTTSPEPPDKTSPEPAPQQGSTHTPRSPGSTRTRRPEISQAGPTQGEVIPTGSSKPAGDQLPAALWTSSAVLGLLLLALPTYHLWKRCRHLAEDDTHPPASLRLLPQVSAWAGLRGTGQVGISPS

Binder	binding result
B1	binds
B2	binds
B3	binds
B4	binds
B5	binds
B6	binds
B7	binds

The binders below were run against T2, mouse MAdCAM expressed on cells (mouse, UniProt Q61826 22-405) (assay: cell binding).
T2 construct: whole, on cells
T2 sequence (looked up): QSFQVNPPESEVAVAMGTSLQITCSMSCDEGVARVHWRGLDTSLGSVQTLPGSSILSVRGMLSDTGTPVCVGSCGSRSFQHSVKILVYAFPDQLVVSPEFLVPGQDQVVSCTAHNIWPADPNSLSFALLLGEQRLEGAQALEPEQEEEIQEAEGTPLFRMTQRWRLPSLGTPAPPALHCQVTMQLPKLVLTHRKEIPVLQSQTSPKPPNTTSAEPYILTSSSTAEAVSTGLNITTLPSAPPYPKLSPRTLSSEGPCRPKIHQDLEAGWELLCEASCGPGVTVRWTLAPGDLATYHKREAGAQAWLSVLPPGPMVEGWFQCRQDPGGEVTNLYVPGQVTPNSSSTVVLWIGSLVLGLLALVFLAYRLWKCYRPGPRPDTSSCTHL

Binder	binding result
B1	no binding
B2	no binding
B3	no binding
B4	no binding
B5	no binding
B6	no binding
B7	no binding
